Data from article PMC11315126.

Molecular target: GST-TrbBWT (not stated | E. coli F plasmid) (UniProt P18035)
Experiment: SEC-MALS; SEC-MALS-SAXS; Superdex 200 10/300 Increase, 0.6 mL/min, 5.5 mg/mL loaded, 20 mM HEPES pH 7.0, 100 mM NaCl, 5% glycerol, 0.05% NP40, 20 °C

stoichiometry N: 2
Substance: GST-TrbBWT (from UniProt P18035 23-181)
